Data from patent US20170044609.
Read-outs that look alike come from different tables or passages of the source.

Tests used:
[1] = biological target: SHARP (SPEN) (Mus musculus) (UniProt Q62504); details: UV crosslinked RIP-qPCR
MYEF2 (Mus musculus) = details: UV crosslinked RIP; RAP-MS
CELF1 (Mus musculus) = details: UV crosslinked RIP; RAP-MS
RALY = details: UV crosslinked RIP; RAP-MS
RBM15 (Mus musculus) = details: UV crosslinked RIP; RAP-MS
hnRNPC = details: UV crosslinked RIP; RAP-MS
[2] = test system: ΔRS-LBR deletion of amino acids 71-90 (Homo sapiens); details: FLAG IP RT-qPCR, UV crosslinked
PTBP1 (Mus musculus) = details: UV crosslinked RIP; CLIP site 10859-11344
hnRNPM (Mus musculus) = details: RAP-MS, UV crosslinked, denaturing
[3] = test system: SAF-A (hnRNPU) (Mus musculus); details: RAP-MS, UV crosslinked, denaturing

Chain of UniProt Q62504 (Q62504 whole entry): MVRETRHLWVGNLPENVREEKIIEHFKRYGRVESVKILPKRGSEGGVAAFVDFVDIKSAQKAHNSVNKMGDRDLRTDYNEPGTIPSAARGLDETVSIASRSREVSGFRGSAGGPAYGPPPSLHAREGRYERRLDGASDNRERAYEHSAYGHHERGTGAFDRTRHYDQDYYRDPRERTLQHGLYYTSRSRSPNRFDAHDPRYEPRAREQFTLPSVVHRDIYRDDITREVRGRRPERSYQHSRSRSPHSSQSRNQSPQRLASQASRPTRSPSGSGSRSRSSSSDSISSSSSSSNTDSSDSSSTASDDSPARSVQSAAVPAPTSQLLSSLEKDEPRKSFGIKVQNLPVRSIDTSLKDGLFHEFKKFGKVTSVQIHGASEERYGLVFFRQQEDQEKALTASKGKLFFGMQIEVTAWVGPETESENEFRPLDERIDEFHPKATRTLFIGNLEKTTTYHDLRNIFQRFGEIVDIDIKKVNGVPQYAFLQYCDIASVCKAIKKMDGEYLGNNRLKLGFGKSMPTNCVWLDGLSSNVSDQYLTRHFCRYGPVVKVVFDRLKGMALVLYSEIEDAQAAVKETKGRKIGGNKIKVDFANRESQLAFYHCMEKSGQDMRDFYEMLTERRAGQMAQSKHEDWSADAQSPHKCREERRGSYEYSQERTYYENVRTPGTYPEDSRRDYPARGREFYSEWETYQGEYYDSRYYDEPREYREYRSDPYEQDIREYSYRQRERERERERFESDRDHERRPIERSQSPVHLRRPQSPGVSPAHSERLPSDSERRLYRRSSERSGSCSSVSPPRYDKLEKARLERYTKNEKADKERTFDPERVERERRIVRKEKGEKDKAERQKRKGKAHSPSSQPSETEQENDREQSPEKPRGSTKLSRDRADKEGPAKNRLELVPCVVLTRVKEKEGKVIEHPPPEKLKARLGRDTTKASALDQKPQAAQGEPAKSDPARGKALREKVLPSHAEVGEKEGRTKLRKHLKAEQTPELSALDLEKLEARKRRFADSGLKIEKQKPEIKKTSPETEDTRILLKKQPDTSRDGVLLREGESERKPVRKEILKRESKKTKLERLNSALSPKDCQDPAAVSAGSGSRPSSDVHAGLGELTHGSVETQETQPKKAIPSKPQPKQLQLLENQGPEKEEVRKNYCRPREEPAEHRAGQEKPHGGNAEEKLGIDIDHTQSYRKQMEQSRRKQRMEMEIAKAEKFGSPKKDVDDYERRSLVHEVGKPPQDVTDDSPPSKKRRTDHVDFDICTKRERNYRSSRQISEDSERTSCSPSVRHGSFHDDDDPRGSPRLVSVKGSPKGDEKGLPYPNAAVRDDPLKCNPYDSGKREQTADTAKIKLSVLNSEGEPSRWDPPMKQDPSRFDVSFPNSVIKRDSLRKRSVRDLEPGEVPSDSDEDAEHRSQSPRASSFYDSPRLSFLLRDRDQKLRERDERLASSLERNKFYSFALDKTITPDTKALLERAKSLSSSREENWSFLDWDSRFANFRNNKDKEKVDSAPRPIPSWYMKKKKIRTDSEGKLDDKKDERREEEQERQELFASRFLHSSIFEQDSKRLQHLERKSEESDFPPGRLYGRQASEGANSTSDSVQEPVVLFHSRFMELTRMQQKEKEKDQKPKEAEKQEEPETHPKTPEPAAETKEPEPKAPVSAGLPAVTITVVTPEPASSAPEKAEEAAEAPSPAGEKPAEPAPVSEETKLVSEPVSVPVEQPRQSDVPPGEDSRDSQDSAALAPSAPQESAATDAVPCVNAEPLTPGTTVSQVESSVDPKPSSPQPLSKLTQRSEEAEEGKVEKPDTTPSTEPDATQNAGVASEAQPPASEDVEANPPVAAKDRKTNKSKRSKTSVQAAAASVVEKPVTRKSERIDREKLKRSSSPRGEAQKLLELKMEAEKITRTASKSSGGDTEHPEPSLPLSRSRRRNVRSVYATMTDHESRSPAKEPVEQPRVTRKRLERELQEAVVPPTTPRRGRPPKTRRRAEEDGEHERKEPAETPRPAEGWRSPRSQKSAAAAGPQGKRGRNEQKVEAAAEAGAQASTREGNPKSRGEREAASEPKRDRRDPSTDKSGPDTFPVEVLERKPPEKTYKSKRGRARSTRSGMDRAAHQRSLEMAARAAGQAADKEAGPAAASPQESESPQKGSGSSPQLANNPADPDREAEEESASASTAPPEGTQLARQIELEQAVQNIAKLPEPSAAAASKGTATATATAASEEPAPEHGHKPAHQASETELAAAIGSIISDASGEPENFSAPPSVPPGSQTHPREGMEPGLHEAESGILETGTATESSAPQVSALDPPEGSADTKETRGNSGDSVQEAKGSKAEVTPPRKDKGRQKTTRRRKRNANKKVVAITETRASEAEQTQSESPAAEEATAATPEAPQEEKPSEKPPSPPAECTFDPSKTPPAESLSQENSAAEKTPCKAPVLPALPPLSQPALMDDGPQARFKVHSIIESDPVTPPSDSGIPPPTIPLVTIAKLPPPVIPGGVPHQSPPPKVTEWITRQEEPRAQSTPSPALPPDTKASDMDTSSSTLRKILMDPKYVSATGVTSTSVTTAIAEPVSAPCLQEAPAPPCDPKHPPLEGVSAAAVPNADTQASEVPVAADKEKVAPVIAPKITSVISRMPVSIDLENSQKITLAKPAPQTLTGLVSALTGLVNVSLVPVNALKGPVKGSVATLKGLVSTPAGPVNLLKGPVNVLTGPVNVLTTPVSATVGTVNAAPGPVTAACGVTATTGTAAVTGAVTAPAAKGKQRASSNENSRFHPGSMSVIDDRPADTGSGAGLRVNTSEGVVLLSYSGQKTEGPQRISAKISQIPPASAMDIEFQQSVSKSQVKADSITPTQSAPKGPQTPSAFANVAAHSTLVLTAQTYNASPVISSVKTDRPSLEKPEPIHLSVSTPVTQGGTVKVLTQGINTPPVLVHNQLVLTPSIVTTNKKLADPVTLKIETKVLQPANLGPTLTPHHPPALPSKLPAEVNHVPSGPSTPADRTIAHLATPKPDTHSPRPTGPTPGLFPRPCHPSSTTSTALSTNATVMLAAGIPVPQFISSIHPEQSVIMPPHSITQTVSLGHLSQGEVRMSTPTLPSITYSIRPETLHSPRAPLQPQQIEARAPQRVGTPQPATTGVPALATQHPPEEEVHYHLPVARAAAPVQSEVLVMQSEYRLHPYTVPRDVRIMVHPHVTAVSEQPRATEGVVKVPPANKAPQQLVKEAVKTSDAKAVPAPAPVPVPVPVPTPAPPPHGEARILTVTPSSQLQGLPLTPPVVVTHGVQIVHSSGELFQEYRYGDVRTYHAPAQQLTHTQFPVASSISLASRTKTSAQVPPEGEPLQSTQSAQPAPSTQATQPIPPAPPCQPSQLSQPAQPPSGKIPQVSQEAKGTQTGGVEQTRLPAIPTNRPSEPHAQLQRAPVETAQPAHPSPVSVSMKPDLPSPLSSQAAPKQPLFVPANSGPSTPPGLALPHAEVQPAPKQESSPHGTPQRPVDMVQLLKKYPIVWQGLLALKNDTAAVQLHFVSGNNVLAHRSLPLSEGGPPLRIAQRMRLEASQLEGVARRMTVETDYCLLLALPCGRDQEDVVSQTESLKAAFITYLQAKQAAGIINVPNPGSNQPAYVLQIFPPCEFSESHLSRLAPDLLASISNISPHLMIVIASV

Substance | binding signal (fold over IgG) ([1]; female ES cells) | binding signal (fold over IgG) ([1]; RA-treated female ES cells, CLIP site 317-1056) | binding signal (fold over input) (MYEF2 (Mus musculus)) | binding signal (fold over input) (CELF1 (Mus musculus)) | binding signal (fold over input) (RALY) | binding signal (fold over input) (RBM15 (Mus musculus)) | binding signal (fold over input) (hnRNPC) | binding signal (% reduced binding) [2] | binding signal (fold over input) (PTBP1 (Mus musculus)) | binding signal (SILAC ratio Xist/U1) (hnRNPM (Mus musculus)) | binding signal (SILAC ratio Xist/U1) [3]
45S pre-rRNA | < 1 | – | – | – | – | – | – | – | – | – | –
Neat1 lncRNA | < 1 | – | – | – | – | – | – | – | – | – | –
Xist lncRNA | – | > 45 | > 4 | > 4 | > 4 | > 4 | > 4 | 97 | > 4 | > 3 | > 3
